Data taken from the supplement of paper PMC9170038.

What follows are sequences tested on MS2 coat protein (assay: apparent KD of MS2 coat protein; designed switch direction (-1 OFF switch, 1 ON switch): 1; higher = weaker reporter binding). Conditions: Eterna round: R98; input ligand: FMN 200 uM.
Description: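 RNA-MaP: designed FMN/MS2 RNA switches (84 nt design region) are transcribed on-chip within common flanks and titrated with SNAP-549-labelled MS2 coat protein (about 1-3000 nM) in 100 mM Tris pH 7.5, 80 mM KCl, 4 mM MgCl2, without or with 200 uM FMN. Median apparent KD per design; activation ratio = KD,OFF / KD,ON.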

In the case of “ACUGUCGCGUGAGGAUAUGGUCUGCAGUGCUGACCAGAAGGCAUGUCGAUAGACAUGAGGAUCACCCAUGUGGUUAGGGCGGAA [salish99_SSNG1_R02_019]”, the “apparent KD of MS2 coat protein” value is reported as 194 nM.

Same assay, conditions: Eterna round: R98; input ligand: none

“ACUGUCGCGUGAGGAUAUGGUCUGCAGUGCUGACCAGAAGGCAUGUCGAUAGACAUGAGGAUCACCCAUGUGGUUAGGGCGGAA [salish99_SSNG1_R02_019]” was tested, and the “apparent KD of MS2 coat protein” value was 298 nM.

Each sequence was assayed on MS2 coat protein (assay: apparent KD of MS2 coat protein, switch ON state; designed switch direction (-1 OFF switch, 1 ON switch): 1; higher = weaker reporter binding). Conditions: FMN input: 0 or 200 uM; Eterna round: R93 (includes R88 designs).
Method in brief: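 Apparent KD per design is the median of normalised cluster binding-curve fits. Designed RNA switches transcribed on-chip from Illumina sequencing clusters were titrated with SNAP-549-labelled MS2 coat protein in twofold steps from 0.7 or 1.5 nM to 3 µM, with 0.8–1.5 h down to 10–20 min per step. Buffer: 100 mM Tris-HCl pH 7.5, 80 mM KCl, 4 mM MgCl2, without or with constant ligand.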

Point of comparison: “AAGAAACAUGAGGAUCACCCAUGUAAGAUAAACACAGGAUAUGCGAAAAUAAACAAAUAAGCAGAAGGGUGAAGAA [Mat - Same State 1 - Tesla mod - 65]”, “apparent KD of MS2 coat protein” value 19.5 nM. Against it:
- GACAAACAUGAGGAUCACCCAUGUAGAAAUAUGGGAGGAUAUACACAGACGAAAGUCAAAGUAGAAGGCCUACAAG [77%, Mat - Mod of Eli - With 3 more C's] — within 1.5-fold, 25.9 nM
- AUAAGACAUGAGGAUCACCCAUGUAUAAGAGCAUGAGGAUAUAUGAAAAGUAAUAGGAGGAUAGAAGGCAUGGUUG [JR_SS001_Sub1219] — 4.6-fold higher, 89.7 nM
- AGAAAACAUGAGGAUCACCCAUGUAGAAAUAUGGGAGGAUAUACAAAGACGAAAGUCAAAGUAGAAGGCCUGAAGA [Mat - Same State 1 - JL mod - D92] — within 1.5-fold, 20.4 nM
- CAGCGCUGUCGAGAGGAUAUGCGGUGAAGGACAUGAGGAUCACCCAUGUAAGCGAUAGUAUUACGGUAGAAGGCUCUACAGCUGC [Isdianbia] — 2.1-fold higher, 41.8 nM
- AAAAAACAUGAGGAUCACCCAUGUAGAAACAUGGGAGGAUAUACAAAGACGAAAGUCAAAGUAGAAGGCCUAAAAG [Mat - Same State 1 - Mod - D158] — 11-fold higher, 224 nM
- AAAAAACAUGAGGAUCACCCAUGUGCAAAAUUCGCAGGAUAUUCCUCAAUUAAAUGAGAGGAAGAAGGGUGAAAAA [Nob's Hobby 26 - Jieux - Same State 1] — within 1.5-fold, 21.3 nM
- GAAAAACAUGAGGAUCACCCAUGUAGAAAUAUGGGAGGAUAUACAAAGACGAAAGUCAAAGUAGAAGGCUCAAAAG [Starry Same State 1.2 (mat747 round 1 mod)] — within 1.5-fold, 28.3 nM
- AAAUUACAUGAGGAUCACCCAUGUAACGACGUUACAGGAUAUGUGGGUGAAAAUAGCAUGACAGAAGGGUACCGUA [SameState1 Malc#38] — 4-fold higher, 78.8 nM
- AGAAGACAUGAGGAUCACCCAUGUAGGAAUAUGGGAGGAUAUACAAAGACGAAAGUCAGAGUAGAAGGCCUAGGAA [salish99-SS1-090] — within 1.5-fold, 18.5 nM
- AAAAGACAUGAGGAUCACCCAUGUCUUCGGACAUGAGGAUAUGUACAGACUUCGGUCUGUACAGAAGGCAUAAAAA [SS1 - 1062] — within 1.5-fold, 21.1 nM
- GCAGGGCCGUACUAGGAUAUGGGUGUAAAGACAUGAGGAUCACCCAUGUGAUGGCAAAACAAAGCUCAGAAGGAGUCGCGGCCCA [Cemavebi] — within 1.5-fold, 20.7 nM
- AAAAGACAUGAGGAUCACCCAUGUAAAGACAUAGGAGGAUAUGUCAUGAAAAAAGACUUGACAGAAGGCCUUUGUC [SS1 - 50] — within 1.5-fold, 20.4 nM
- AAUAUACAUGAGGAUCACCCAUGUUUUAAUAACUCAGGAUAUACAGGUGAAAACAGCAUAGUAGAAGGGAGAAAAA [SameState1 Malc#3] — within 1.5-fold, 18.2 nM
- GAUGACAUAGUACAGGAUAUAUGAAUAGUCACAUGAGGAUCACCCAUGUGCAUUUAUAUGCGCACAUAGAAGGGUGGUAGUGAUC [Mat - Same state - Malcolm Mod - D126] — 4.1-fold higher, 79.9 nM
- GGAGCCGGCACUGAGGAUAUUCAUAUUAAAACAUGAGGAUCACCCAUGUAGGCCAGAAGGCCUUGGGAGAAGGCAGGUCGGCUCG [Arinin] — within 1.5-fold, 16.5 nM
- AAAAAACAUGAGGAUCACCCAUGUGGGAAUAUGGAAGGAUAUACAAAGACGAAAGUCAAAGUAGAAGGUCUAAAAG [76%, Meechl 2] — 2-fold higher, 39.6 nM
- AAAAAAAAGGGUGAGGAUAUAGAAAAAAAAACAUGAGGAUCACCCAUGUGAAAAAAAAAAAAAAGCUAGAAGGCACAAAAAAAAAA [Same State 2] — 4.1-fold higher, 79.2 nM
- AAUUCCACUAGCAAGGAUAUCUAAAACGAAACAUGAGGAUCACCCAUGUGACGACCACACGUAUCAGAGAAGGUGCAGGGUGAAU [JR_SS002_Sub307] — within 1.5-fold, 20.5 nM
- UGCAGGAAGAGAGAGGAUAUCCAAAGGAAAACAUGAGGAUCACCCAUGUAAAAGGUAGGAAAUUGGGAGAAGGCUCAAGAGAGAG [salish99-ss2-098] — 1.7-fold higher, 33.1 nM
- AAAUAAAGGACUGAGGAUAUACCACAUGAAACAUGAGGAUCACCCAUGUAGAAAUACAAGCGGUGGUAGAAGGCAGUCCACAAAC [Same State 2.5i ( so lets mod hyphema)] — within 1.5-fold, 21.2 nM
- AAUAAAAAUAGUUAGGAUAUGAGAACUAGGACAUGAGGAUCACCCAUGUAACUAGAACAAGUAAAUCAGAAGGGACAGGGUGAAA [JR_SS002_Sub203] — 2.1-fold higher, 41.9 nM
- GAGAGACAUGAGGAUCACCCAUGUAGGAUUAUGGGAGGAUAUACAAAGACGAGAGUCAGAGUAGAAGGCCUAGGAG [salish99-ss1-139] — within 1.5-fold, 25.4 nM
- AAAAGACAUGAGGAUCACCCAUGUAAAAACGUAGGAGGAUAUGUAUGGAAACCAGACUGUACAGAAGGCCUUUGUC [SS1 - 73] — within 1.5-fold, 20 nM
- AGAUCUAGAAGGUAGGAUAUGUGAAAAAAUACAUGAGGAUCACCCAUGUGAUGAAUAAAAAGAAAAUAGAAGGACCAUCUAGAUC [Cross swing 2] — within 1.5-fold, 16.5 nM
- AUGUAUAGCCUCGAGGAUAUCCUGUCAUGCACAUGAGGAUCACCCAUGUAAGAGAGAGUUUAAUGGGAGAAGGCGAGUUCUCGGU [JR_SS002_Sub1706] — 1.7-fold higher, 33.4 nM
- CCCAUACAUGAGGAUCACCCAUGUUUUAUUAACAGAGGAUAUAUAGGUGAAACAAACAACAUAGAAGGCUGCCCAA [Default title] — 1.8-fold higher, 34.2 nM
- GUAGACAUAGUUCAGGAUAUAUGAAUAGUCACAUGAGGAUCACCCAUGUCCAUUUAUAUGGGCACAUAGAAGGGAGGUAGUUAAC [Mat - Same state - Malcolm Mod - D123] — 46-fold higher, 891 nM
- AUAUAUAUAAGGUAGGAUAUCCAAAAGUAAACAUGAGGAUCACCCAUGUAAAGAAAGAAACAAUGGGAGAAGGACCAUAUAUAUA [77%, More Tesla, 3] — 2.1-fold lower, 9.5 nM
- AAGAAACAUGAGGAUCACCCAUGUAAGAUAAACACAGGAUAUGCAAAAGAAAGAAAGAAAGCAGAAGGGUGAAGAA [Mat - Same State 1 - Tesla mod - 50] — within 1.5-fold, 15.7 nM
- AAAGAAUGAAGGCAGGAUAUGUGAAAAAAAACAUGAGGAUCACCCAUGUAAUAAAUGGGUACAAAACAGAAGGGCCAAGAAAUAA [SS 2 Tesla 2] — 8.7-fold higher, 170 nM
- AAAACACAUGAGGAUCACCCAUGUAAAAACAUGGGAGGAUAUGCUUGGAAAACAUGCUAUGCAGAAGGCUCAAGUG [SS1 - 12] — 3.7-fold higher, 72.6 nM
- AUAAAACAUGAGGAUCACCCAUGUCAAGAGUAUUAAGGAUAUGAGCCAGGGAACUGGCGAUCAGAAGGUGAGACUC [Atxerexebe] — 8.2-fold higher, 160 nM
- GAAAAACAUGAGGAUCACCCAUGUGAAAAUAUGGGAGGAUAUACGAAGUCGAAAGUCAAAGUAGAAGGCCUAAAAG [Garnet 32] — 2.2-fold higher, 43.6 nM
- GGAAAUAAAAGAGAGGAUAUCCAAAGGAAAACAUGAGGAUCACCCAUGUAAAAGGAAGGAAACUGGGAGAAGGCUCAAAAUAAGG [salish99-ss2-010] — within 1.5-fold, 18.7 nM
- AUAAUAAAAACACAGGAUAUCCAAAAGAAAACAUGAGGAUCACCCAUGUAAAGAAAAUAAAAAUGGGAGAAGGGUGAAAUAAAUA [Mat - Same State 2 - JL mod - D34] — 1.9-fold higher, 37.4 nM
- UGGAGACAUGAGGAUCACCCAUGUGAGAAGAGGCGAGGAUAUCGAAAGAAAGAAGAGAAACGAGAAGGCGCGAGCC [salish99-SS1-048] — 1.9-fold higher, 36.2 nM
- AAAAGACAUGAGGAUCACCCAUGUGAAAACGUGCGAGGAUAUGUGUGGAAACCGUACUAUACAGAAGGCGCGUGUC [SS1 - 84] — within 1.5-fold, 22.2 nM
- AUAAGAAAAACACAGGAUAUCCAAAAGAAAACAUGAGGAUCACCCAUGUAAAGAAAAUAAAAAUGGGAGAAGGGUGAAAAUAAUA [Mat - Same State 2 - JL mod - D32] — within 1.5-fold, 28.1 nM
